The results in this text go back to patent US20240002475A1.

In experiment [1] the target is green fluorescent protein (GFP), recombinant (Aequorea victoria) [GFP: P42212]. Description: SPR, GFP immobilised; reference LaG-16 or LaG-2 alone.
Experiment [2] addresses GFP-tagged Nup84 (budding yeast) (budding yeast) (UniProt P52891). Description: time course of yeast Nup84-GFP isolation on magnetic beads.
Experiment [3] addresses green fluorescent protein (GFP), recombinant (Aequorea victoria) [GFP: P42212]. The experiment is described as follows: SPR, GFP immobilised.

Regarding “LaG16-LaG2 fusion with a flexible glycine-rich linker”, the fold lower Kd than either LaG alone in experiment [1] amounted to 20 fold. In experiment [2], this substance showed a percent of maximum yield after 5 minutes of 80% and a percent of maximum yield after 10 minutes of 90%. Also, the equilibrium dissociation constant (Kd) in experiment [3] is 36 pM.
